Data as given in IntAct's records for PubMed 31515488.

B1: Transcription factor 12 (Homo sapiens), Q99081 (parent)
chain: MNPQQQRMAAIGTDKELSDLLDFSAMFSPPVNSGKTRPTTLGSSQFSGSGIDERGGTTSWGTSGQPSPSYDSSRGFTDSPHYSDHLNDSRLGAHEGLSPTPFMNSNLMGKTSERGSFSLYSRDTGLPGCQSSLLRQDLGLGSPAQLSSSGKPGTAYYSFSATSSRRRPLHDSAALDPLQAKKVRKVPPGLPSSVYAPSPNSDDFNRESPSYPSPKPPTSMFASTFFMQDGTHNSSDLWSSSNGMSQPGFGGILGTSTSHMSQSSSYGNLHSHDRLSYPPHSVSPTDINTSLPPMSSFHRGSTSSSPYVAASHTPPINGSDSILGTRGNAAGSSQTGDALGKALASIYSPDHTSSSFPSNPSTPVGSPSPLTGTSQWPRPGGQAPSSPSYENSLHSLQSRMEDRLDRLDDAIHVLRNHAVGPSTSLPAGHSDIHSLLGPSHNAPIGSLNSNYGGSSLVASSRSASMVGTHREDSVSLNGNHSVLSSTVTTSSTDLNHKTQENYRGGLQSQSGTVVTTEIKTENKEKDENLHEPPSSDDMKSDDESSQKDIKVSSRGRTSSTNEDEDLNPEQKIEREKERRMANNARERLRVRDINEAFKELGRMCQLHLKSEKPQTKLLILHQAVAVILSLEQQVRERNLNPKAACLKRREEEKVSAVSAEPPTTLPGTHPGLSETTNPMGHM
partner: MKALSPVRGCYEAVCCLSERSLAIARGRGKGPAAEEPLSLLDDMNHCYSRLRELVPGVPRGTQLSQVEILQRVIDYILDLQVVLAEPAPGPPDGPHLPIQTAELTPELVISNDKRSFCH
B2: Serine/threonine-protein kinase PAK 5 (Homo sapiens), Q9P286 (parent)
chain: MFGKKKKKIEISGPSNFEHRVHTGFDPQEQKFTGLPQQWHSLLADTANRPKPMVDPSCITPIQLAPMKTIVRGNKPCKETSINGLLEDFDNISVTRSNSLRKESPPTPDQGASSHGPGHAEENGFITFSQYSSESDTTADYTTEKYREKSLYGDDLDPYYRGSHAAKQNGHVMKMKHGEAYYSEVKPLKSDFARFSADYHSHLDSLSKPSEYSDLKWEYQRASSSSPLDYSFQFTPSRTAGTSGCSKESLAYSESEWGPSLDDYDRRPKSSYLNQTSPQPTMRQRSRSGSGLQEPMMPFGASAFKTHPQGHSYNSYTYPRLSEPTMCIPKVDYDRAQMVLSPPLSGSDTYPRGPAKLPQSQSKSGYSSSSHQYPSGYHKATLYHHPSLQSSSQYISTASYLSSLSLSSSTYPPPSWGSSSDQQPSRVSHEQFRAALQLVVSPGDPREYLANFIKIGEGSTGIVCIATEKHTGKQVAVKKMDLRKQQRRELLFNEVVIMRDYHHDNVVDMYSSYLVGDELWVVMEFLEGGALTDIVTHTRMNEEQIATVCLSVLRALSYLHNQGVIHRDIKSDSILLTSDGRIKLSDFGFCAQVSKEVPKRKSLVGTPYWMAPEVISRLPYGTEVDIWSLGIMVIEMIDGEPPYFNEPPLQAMRRIRDSLPPRVKDLHKVSSVLRGFLDLMLVREPSQRATAQELLGHPFLKLAGPPSCIVPLMRQYRHH
partner: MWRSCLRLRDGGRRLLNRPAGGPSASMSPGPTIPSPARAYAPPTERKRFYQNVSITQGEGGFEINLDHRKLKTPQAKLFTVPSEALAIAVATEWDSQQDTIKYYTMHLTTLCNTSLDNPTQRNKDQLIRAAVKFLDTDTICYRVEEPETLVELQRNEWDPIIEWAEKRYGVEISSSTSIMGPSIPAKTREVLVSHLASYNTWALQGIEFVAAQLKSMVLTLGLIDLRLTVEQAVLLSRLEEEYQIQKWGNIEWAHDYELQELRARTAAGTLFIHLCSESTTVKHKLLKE
B3: pre-mRNA splicing regulator USH1G (Homo sapiens), Q495M9 (parent)
chain: MNDQYHRAARDGYLELLKEATRKELNAPDEDGMTPTLWAAYHGNLESLRLIVSRGGDPDKCDIWGNTPLHLAASNGHLHCLSFLVSFGANIWCLDNDYHTPLDMAAMKGHMECVRYLDSIAAKQSSLNPKLVGKLKDKAFREAERRIRECAKLQRRHHERMERRYRRELAERSDTLSFSSLTSSTLSRRLQHLALGSHLPYSQATLHGTARGKTKMQKKLERRKQGGEGTFKVSEDGRKSARSLSGLQLGSDVMFVRQGTYANPKEWGRAPLRDMFLSDEDSVSRATLAAEPAHSEVSTDSGHDSLFTRPGLGTMVFRRNYLSSGLHGLGREDGGLDGVGAPRGRLQSSPSLDDDSLGSANSLQDRSCGEELPWDELDLGLDEDLEPETSPLETFLASLHMEDFAALLRQEKIDLEALMLCSDLDLRSISVPLGPRKKILGAVRRRRQAMERPPALEDTEL
partner: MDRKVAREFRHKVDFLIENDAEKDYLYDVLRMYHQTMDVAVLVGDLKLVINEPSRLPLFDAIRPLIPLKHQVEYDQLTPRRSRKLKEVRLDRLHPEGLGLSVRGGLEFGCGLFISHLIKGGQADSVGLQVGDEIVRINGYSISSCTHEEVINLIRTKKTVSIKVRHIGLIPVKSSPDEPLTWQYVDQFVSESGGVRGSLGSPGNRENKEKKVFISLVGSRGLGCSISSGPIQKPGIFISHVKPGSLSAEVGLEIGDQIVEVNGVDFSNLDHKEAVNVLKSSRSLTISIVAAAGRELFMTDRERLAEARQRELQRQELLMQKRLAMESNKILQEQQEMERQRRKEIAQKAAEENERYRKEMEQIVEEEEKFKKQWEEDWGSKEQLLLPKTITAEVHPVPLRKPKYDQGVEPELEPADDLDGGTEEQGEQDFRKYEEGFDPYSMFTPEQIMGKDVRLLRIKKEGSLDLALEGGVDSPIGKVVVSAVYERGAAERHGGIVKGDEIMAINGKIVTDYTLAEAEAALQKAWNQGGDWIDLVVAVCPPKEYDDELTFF
B4: Zinc finger protein Aiolos (Homo sapiens), Q9UKT9 (parent)
chain: MEDIQTNAELKSTQEQSVPAESAAVLNDYSLTKSHEMENVDSGEGPANEDEDIGDDSMKVKDEYSERDENVLKSEPMGNAEEPEIPYSYSREYNEYENIKLERHVVSFDSSRPTSGKMNCDVCGLSCISFNVLMVHKRSHTGERPFQCNQCGASFTQKGNLLRHIKLHTGEKPFKCHLCNYACQRRDALTGHLRTHSVEKPYKCEFCGRSYKQRSSLEEHKERCRTFLQSTDPGDTASAEARHIKAEMGSERALVLDRLASNVAKRKSSMPQKFIGEKRHCFDVNYNSSYMYEKESELIQTRMMDQAINNAISYLGAEALRPLVQTPPAPTSEMVPVISSMYPIALTRAEMSNGAPQELEKKSIHLPEKSVPSERGLSPNNSGHDSTDTDSNHEERQNHIYQQNHMVLSRARNGMPLLKEVPRSYELLKPPPICPRDSVKVINKEGEVMDVYRCDHCRVLFLDYVMFTIHMGCHGFRDPFECNMCGYRSHDRYEFSSHIARGEHRALLK
partner: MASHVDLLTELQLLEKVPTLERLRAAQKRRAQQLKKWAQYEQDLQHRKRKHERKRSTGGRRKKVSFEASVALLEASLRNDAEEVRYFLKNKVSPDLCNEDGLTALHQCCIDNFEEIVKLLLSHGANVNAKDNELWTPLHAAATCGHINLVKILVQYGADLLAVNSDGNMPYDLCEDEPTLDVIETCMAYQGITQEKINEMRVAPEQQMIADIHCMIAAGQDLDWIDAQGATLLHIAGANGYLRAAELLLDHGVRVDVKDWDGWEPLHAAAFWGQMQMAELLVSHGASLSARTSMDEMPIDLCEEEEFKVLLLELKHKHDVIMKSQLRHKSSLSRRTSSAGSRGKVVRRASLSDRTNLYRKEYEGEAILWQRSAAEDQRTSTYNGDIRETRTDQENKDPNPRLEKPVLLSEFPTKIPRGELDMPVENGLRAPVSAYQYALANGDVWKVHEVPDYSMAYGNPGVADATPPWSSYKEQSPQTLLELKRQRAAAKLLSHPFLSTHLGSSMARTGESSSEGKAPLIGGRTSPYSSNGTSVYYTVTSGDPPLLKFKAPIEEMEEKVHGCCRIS
B5: NADPH oxidase activator 1 (Homo sapiens), Q86UR1 (parent)
chain: MASLGDLVRAWHLGAQAVDRGDWARALHLFSGVPAPPARLCFNAGCVHLLAGDPEAALRAFDQAVTKDTCMAVGFFQRGVANFQLARFQEALSDFWLALEQLRGHAAIDYTQLGLRFKLQAWEVLHNVASAQCQLGLWTEAASSLREAMSKWPEGSLNGLDSALDQVQRRGSLPPRQVPRGEVFRPHRWHLKHLEPVDFLGKAKVVASAIPDDQGWGVRPQQPQGPGANHDARSLIMDSPRAGTHQGPLDAETEVGADRCTSTAYQEQRPQVEQVGKQAPLSPGLPAMGGPGPGPCEDPAGAGGAGAGGSEPLVTVTVQCAFTVALRARRGADLSSLRALLGQALPHQAQLGQLSYLAPGEDGHWVPIPEEESLQRAWQDAAACPRGLQLQCRGAGGRPVLYQVVAQHSYSAQGPEDLGFRQGDTVDVLCEVDQAWLEGHCDGRIGIFPKCFVVPAGPRMSGAPGRLPRSQQGDQP
B6: Tyrosine aminotransferase (Homo sapiens), P17735 (parent)
chain: MDPYMIQMSSKGNLPSILDVHVNVGGRSSVPGKMKGRKARWSVRPSDMAKKTFNPIRAIVDNMKVKPNPNKTMISLSIGDPTVFGNLPTDPEVTQAMKDALDSGKYNGYAPSIGFLSSREEIASYYHCPEAPLEAKDVILTSGCSQAIDLCLAVLANPGQNILVPRPGFSLYKTLAESMGIEVKLYNLLPEKSWEIDLKQLEYLIDEKTACLIVNNPSNPCGSVFSKRHLQKILAVAARQCVPILADEIYGDMVFSDCKYEPLATLSTDVPILSCGGLAKRWLVPGWRLGWILIHDRRDIFGNEIRDGLVKLSQRILGPCTIVQGALKSILCRTPGEFYHNTLSFLKSNADLCYGALAAIPGLRPVRPSGAMYLMVGIEMEHFPEFENDVEFTERLVAEQSVHCLPATCFEYPNFIRVVITVPEVMMLEACSRIQEFCEQHYHCAEGSQEECDK
B7: Carboxy-terminal domain RNA polymerase II polypeptide A small phosphatase 1 (Homo sapiens), Q9GZU7 (parent)
chain: MDSSAVITQISKEEARGPLRGKGDQKSAASQKPRSRGILHSLFCCVCRDDGEALPAHSGAPLLVEENGAIPKQTPVQYLLPEAKAQDSDKICVVIDLDETLVHSSFKPVNNADFIIPVEIDGVVHQVYVLKRPHVDEFLQRMGELFECVLFTASLAKYADPVADLLDKWGAFRARLFRESCVFHRGNYVKDLSRLGRDLRRVLILDNSPASYVFHPDNAVPVASWFDNMSDTELHDLLPFFEQLSRVDDVYSVLRQPRPGS
partner: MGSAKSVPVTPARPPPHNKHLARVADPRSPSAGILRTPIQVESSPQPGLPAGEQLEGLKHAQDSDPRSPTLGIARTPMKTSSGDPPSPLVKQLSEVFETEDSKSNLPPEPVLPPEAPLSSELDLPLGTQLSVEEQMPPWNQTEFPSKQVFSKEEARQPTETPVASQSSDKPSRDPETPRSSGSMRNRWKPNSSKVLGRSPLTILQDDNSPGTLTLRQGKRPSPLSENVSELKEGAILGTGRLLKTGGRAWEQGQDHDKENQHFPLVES

Variants of: B1
Settings: with id3_human ID3, Q02535

Variant	effect of a mutation on the interaction
D565V	with no effect
G300S	with no effect

Variants of: B2
Settings: with atpf2_human ATPAF2, Q8N5M1

Variant	effect of a mutation on the interaction
R335P	with no effect

Variants of: B3
Settings: with ush1c_human USH1C

Variant	effect of a mutation on the interaction
L16V	with no effect
L48P	with no effect
L420V	with no effect
E393D	with no effect

Variants of: B4
Settings: with pp16b_human PPP1R16B

Variant	effect of a mutation on the interaction
N119D	with no effect
A24V	with no effect

Variants of: B5
Settings: with rim3a_human RIMBP3, Q9UFD9
rim3a_human RIMBP3, Q9UFD9, sequence (Q9UFD9 whole entry): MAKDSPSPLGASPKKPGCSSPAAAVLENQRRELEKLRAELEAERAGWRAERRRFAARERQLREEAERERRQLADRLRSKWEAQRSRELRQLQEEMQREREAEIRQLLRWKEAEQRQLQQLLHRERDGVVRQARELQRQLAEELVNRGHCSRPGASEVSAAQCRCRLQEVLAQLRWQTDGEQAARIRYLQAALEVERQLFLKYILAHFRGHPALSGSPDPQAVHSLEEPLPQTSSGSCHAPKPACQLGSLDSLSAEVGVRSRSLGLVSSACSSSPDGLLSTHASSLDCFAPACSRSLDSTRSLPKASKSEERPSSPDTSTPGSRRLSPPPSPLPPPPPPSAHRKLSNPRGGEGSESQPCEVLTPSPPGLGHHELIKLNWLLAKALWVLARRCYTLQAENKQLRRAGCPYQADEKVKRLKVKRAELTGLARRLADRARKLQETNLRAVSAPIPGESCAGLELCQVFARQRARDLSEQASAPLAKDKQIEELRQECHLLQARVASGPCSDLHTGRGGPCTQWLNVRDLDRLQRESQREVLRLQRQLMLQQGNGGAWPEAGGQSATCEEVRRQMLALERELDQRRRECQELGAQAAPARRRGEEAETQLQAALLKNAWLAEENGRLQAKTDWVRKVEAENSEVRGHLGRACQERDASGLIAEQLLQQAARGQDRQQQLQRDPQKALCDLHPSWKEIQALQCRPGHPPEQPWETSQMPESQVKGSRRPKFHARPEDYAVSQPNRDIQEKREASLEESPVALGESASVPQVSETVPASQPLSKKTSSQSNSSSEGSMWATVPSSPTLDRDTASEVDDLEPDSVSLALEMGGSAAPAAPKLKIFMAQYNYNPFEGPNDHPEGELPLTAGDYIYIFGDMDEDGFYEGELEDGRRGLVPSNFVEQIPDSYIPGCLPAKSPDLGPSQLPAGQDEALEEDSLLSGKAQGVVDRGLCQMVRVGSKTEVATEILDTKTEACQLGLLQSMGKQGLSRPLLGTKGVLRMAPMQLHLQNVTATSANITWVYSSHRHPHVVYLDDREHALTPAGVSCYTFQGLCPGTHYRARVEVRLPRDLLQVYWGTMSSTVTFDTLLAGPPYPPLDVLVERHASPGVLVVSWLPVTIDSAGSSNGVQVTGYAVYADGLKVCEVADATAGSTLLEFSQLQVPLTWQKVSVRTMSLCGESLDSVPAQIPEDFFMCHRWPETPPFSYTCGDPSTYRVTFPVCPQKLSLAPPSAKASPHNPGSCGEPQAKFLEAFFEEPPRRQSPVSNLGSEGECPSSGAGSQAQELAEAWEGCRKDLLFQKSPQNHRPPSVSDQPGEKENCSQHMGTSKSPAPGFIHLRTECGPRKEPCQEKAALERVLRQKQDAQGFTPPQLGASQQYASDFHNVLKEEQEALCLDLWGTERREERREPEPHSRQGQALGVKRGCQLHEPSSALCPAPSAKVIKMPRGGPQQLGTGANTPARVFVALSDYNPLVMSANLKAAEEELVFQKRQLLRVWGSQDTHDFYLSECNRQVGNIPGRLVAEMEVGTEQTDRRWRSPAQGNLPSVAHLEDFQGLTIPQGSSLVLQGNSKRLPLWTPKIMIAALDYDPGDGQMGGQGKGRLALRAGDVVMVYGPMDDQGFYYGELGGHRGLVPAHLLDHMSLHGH

Variant	effect of a mutation on the interaction
D6E	with no effect

Variants of: B6
Settings: with ube3a_human UBE3A

Variant	effect of a mutation on the interaction
R119W	disrupting interaction strength

Variants of: B7
Settings: with cdca3_human CDCA3, Q99618

Variant	effect of a mutation on the interaction
H57D	with no effect
